Measurements as given in PMC3154026.

Target: TamL, FAD-dependent oxidase (flavoprotein) of the tirandamycin biosynthetic gene cluster (Streptomyces sp. 307-9)
Test: crystal structure

- stoichiometry N: 2
Substance: TamL, FAD-dependent oxidase (flavoprotein) of the tirandamycin biosynthetic gene cluster (enzyme)
